Laboratory results published in patent US20090035281A1, “COMBINATION OF INTERLEUKIN-6 ANTAGONISTS AND ANTIPROLIFERATIVE DRUGS” (Universita Degli Studi "Magna Graecia" Di Catanzaro, priority 2005, published 2009).

B1: SANT-7: superantagonist of the IL-6 receptor, molecular variant of IL-6 totally incapable of binding gp130, sequence SEQ ID No. 4 (protein, listed as Homo sapiens)
chain: PVPPGEDSKDVAAPHRQPLTSSERIDKQIRDILDFISALRKETCNKSNMCESSKEADAFWNLNLPKMAEKDGCFYKGFNEETCLVKIITGLLEFEVYLEYLQNRFESSEEQARAVQMRTKDLIQFLQKKAKNLDAITTPDPTTNASLLTKLQAQNQWLQDMTTHLILRSFKEFLIRSLRALRAM

What was measured:
[1] = test system: INA-6 MM cells in human foetal bone implant; test: SCID-hu INA-6 mouse model of human MM, tumour growth by serum shuIL-6R; type: in vivo; details: for reduction in serum shuIL-6R (marker of tumour growth) vs control group: s.c., SANT-7 3.3 mg/kg or Dex 1 mg/kg alone, 5 consecutive days; for tolerability in SCID-hu mice: treatment with single agent
Method: Male SCID C-17 mice aged from six to eight weeks (Taconic Germany, N.Y.) were housed and monitored in our Animal Research Facility. All the experimental procedures and protocols were approved by the Institutional Committee on the Treatment and Use of Animals. Human foetal femur transplants were implanted in SCID (SCID-hu) mice, as described in Urashima, M., et al.; Blood, 1997; 90(2): 754-65; Tassone, P., et al.; Blood, 2004. Four weeks after implantation, 2.5×10^6 INA-6 MM cells in 50 μl of PBS were injected into the foetal bone implant in the SCID-hu hosts. Serum levels of the interleukin-6 soluble receptor (shuIL-6R) (R & D Systems Inc., Minneapolis, Minn.) were monitored in the mice.
(§1) In these mice serum shuIL-6R was measured as a marker of tumour growth and disease severity, since it is released by the INA-6 cells. First, the pharmacokinetics of SANT-7 was determined.

[2] = test system: INA-6 cells adhering to bone marrow stromal cells (BMSC); test: Cell proliferation of INA-6 cells adhering to BMSC, no exogenous IL-6; type: cell-based, human; details: 70-80% confluent BMSC, no exogenous IL-6, 3 days after treatment
Method: (§2) Cell proliferation was measured by incorporation of [^3H]-thymidine (NEN Life Science Products, Boston, Mass.). Cells (2×10^4 cells/well) were incubated on 96-well culture plates in the presence or absence of 70-80% confluent BMSC at 37° C. with or without the study substance (in wells in triplicate) for 72 h. [^3H]-thymidine (0.5 μCi) was then added to each well for at least 8 h. Cells were collected on glass filters with an automatic cell collector (Cambridge Technology, Cambridge, Mass.) and counted using a Micro-Beta Trilux counter (Wallac, Gaithersburgh, Md.).
Since the paracrine production of IL-6 occurs when the MM cells adhere to BMSC (Uchiyama, H., et al.; Blood, 1993; 82:3712-3720), the supporting effect of BMSC for the in-vitro growth of INA-6 cells after exposure to the drugs was evaluated. The INA-6 cells were seeded on 70-80% confluent BMSC, in the absence of exogenous IL-6, and the cell proliferation was established 3 days after the treatment.

[3] = test system: human IL-6-dependent multiple myeloma (MM) cell line, INA-6; test: Cell proliferation assay ([3H]-thymidine incorporation), INA-6 cells with exogenous IL-6; type: cell-based; details: INA-6, exogenous IL-6 present, 3 days' exposure
Method: The formation, characterisation and in-vitro culturing of the IL-6-dependent human MM cell line INA-6 is described in Burger, R., et al.; Hematol. J., 2001; 2:42-53. The cells were maintained in RPMI 1640 culture medium (GIBCO, Grand Island, N.Y.) added with 10% foetal calf serum (FCS, Hyclone, Logan, Utah), L-glutamine 2 mM (GIBCO), 100 μg/ml of streptomycin (GIBCO) and 100 U/ml of penicillin (GIBCO) in the presence of 2.5 ng/ml of IL-6 at 37° C. in a 5% CO2 atmosphere
as §2
(§3) IL-6 has been identified as one of the main factors in the growth and survival of MM cells. […] INA-6 cells were seeded and cultured on 96-well plates in the presence of exogenous IL-6, and then, after 3 days' exposure of the cells to the drugs, cell proliferation and apoptosis were determined.

[4] = test system: human IL-6-dependent multiple myeloma (MM) cell line, INA-6; test: Detection of apoptosis (annexin V-FITC / propidium iodide flow cytometry), INA-6 cells with exogenous IL-6; type: cell-based; details: INA-6, exogenous IL-6 present, 3 days' exposure
Method: To detect the induction of cell death by apoptosis, double staining was performed with annexin V labelled with FITC and propidium iodide (PI). After treating 1×10^6 tumour cell for 48 h, the cells were washed with PBS and resuspended in 100 μl of HEPES buffer containing annexin V-FITC and propidium iodide (PI) (Annexin V-FLUOS staining kit; Roche Diagnostic, Indianapolis, Ind.). After 15 minutes' incubation at room temperature, the cells were analysed using a Coulter Epics XL flow cytometer to detect the presence of an apoptotic cell population staining positive for annexin V-FITC and negative for PI.
as §3, with “cells. INA-6 is a human myeloma cell line that requires exogenous IL-6 for growth in vitro (FIG. 1A).” for “cells.”

[5] = In-vivo kinetics of SANT-7 after s.c. injection; parameters: species or system SCID-hu mouse
Method: A) Sant-7 (3.3 mg/kg) was injected s.c. into a SCID-hu mouse and its kinetics was evaluated with serial determinations of IL-6 in serum. B) Tumour growth in SCID-hu mice implanted with INA-6 cells was monitored with serial measurements of shuIL-6R. […] P values were obtained by comparison between the control groups and the groups treated with the combination. The data were expressed as mean±SE.
as §1

[6] = test system: human CD34+ Haematopoietic Progenitor Cells (HPC); test: Liquid culture of CD34+ HPC, flow cytometric cell cycle (DNA content, PI) analysis; type: cell-based; details: 6 days liquid culture with haemopoietins + IL-6
From the text: (§4) Peripheral blood mobilised CD34^+ HPC were isolated from leukapheresis products of patients with haematopoietic and non-haematopoietic tumours, treated with high-dose chemotherapy and G-CSF or GM-CSF. Peripheral blood mononuclear cells were obtained by centrifugation across a Ficoll density gradient (Seromed, Berlin, Germany), washed and submitted to positive selection using the CD34 Progenitor Cell Isolation Kit (Miltenyi Biotech, Bergish Gladbach, Germany). In brief, CD34^+ HPC were magnetically labelled indirectly using a primary monoclonal antibody conjugated with a hapten and an anti-hapten antibody coupled with MACS MicroBeads (Miltenyi). The labelled cells were subsequently enriched with the MiniMACS magnetic field.

[7] = test system: purified CD34+ HPC; test: Clonogenic progenitor assays in methylcellulose; type: cell-based, human; details: for CFC-GM: SANT-7 200 ng/ml, Dex 10^-5 M; for Total: total colonies
From the text: as §4
The clonogenic progenitor assays were carried out in methylcellulose as described previously with minor modifications. In brief, 1×10^3 freshly isolated CD34^+ HCP were seeded in IMDM (GIBCO) containing 1% methylcellulose, 30% foetal calf serum (Hyclone), 1% bovin serum albumin (Sigma), L-glutamine 2 mM (GIBCO) and 2β-mercaptoethanol 10^−4 M (Stemcell Technologies Inc., Vancouver, Canada). To induce granulomonocytic or erythroid differentiation, the cells were stimulated with IL-3 (50 ng/ml), GM-CSF (100 ng/ml), G-CSF (100 ng/ml) or IL-3 (50 ng/ml), GM-CSF (100 ng/ml), SCF (50 ng/ml) ed Epo (3 U/ml), respectively. […] 1 ml aliquots were plated in triplicate on 35 mm culture plates (Falcon) at 37° C. in a 5% CO2 humidified atmosphere. After 14 days' culture, the granulomonocytic colonies (CFC-GM) and the erythroid colonies (BFU-E) were counted by examining the cultures under an inverted microscope.

[8] = single s.c. injection 3.3 mg/kg

| Molecule | reduction in serum shuIL-6R (marker of tumour growth) vs control group [1] | tolerability in SCID-hu mice [1] | growth inhibition of INA-6 cells adhering to BMSC [2] | growth inhibition of MM cells [3] | death by apoptosis in MM cells [4] | time drug remains in circulation after the injection [5, 8] | time to SANT-7 serum peak [5, 8] | clearance ([5]; subcutaneous administration) | apoptosis rate of CD34+ cells [6] | effect on cell proliferation (cell cycle) of CD34+ cells [6] | effect on generation of CFC-GM and BFU-E in response to haemopoietins ([7]; CD34+ HPC, clonogenic assays) | CFC-GM ([7]; colonies, IL3 + GM + G + IL6 (granulomonocytic differentiation), 1 × 10^3 cells/plate, day 14, mean ± SD) | CFC-GM ([7]; colonies, IL3 + GM + SCF + Epo + IL6 (erythroid differentiation), 1 × 10^3 cells/plate, day 14, mean ± SD) | BFU-E ([7]; colonies, IL3 + GM + SCF + Epo + IL6, 1 × 10^3 cells/plate, day 14, mean ± SD) | Total ([7]; IL3 + GM + G + IL6, 1 × 10^3 cells/plate, day 14, mean ± SD) | Total ([7]; IL3 + GM + SCF + Epo + IL6, 1 × 10^3 cells/plate, day 14, mean ± SD) |
| --- | --- | --- | --- | --- | --- | --- | --- | --- | --- | --- | --- | --- | --- | --- | --- | --- |
| C[C@@H]1C[C@H]2[C@@H]3CCC4=CC(=O)C=C[C@]4(C)[C@@]3(F)[C@@H](O)C[C@]2(C)[C@@]1(O)C(=O)CO [Dex, dexamethasone, reference compound] | did not induce any significant reduction | well tolerated | activity was inhibited | neither modified cell proliferation | nor induced apoptosis | – | – | – | – | – | – | – | – | – | – | – |
| B1 | did not induce any significant reduction | well tolerated | reduced the efficacy of the growth inhibition | high rates of growth inhibition | high rates | 4 h | 30 min | very rapid clearance | No significant apoptosis rate | does not significantly affect cell proliferation | does not interfere appreciably | 73 ± 2 | 21 ± 1 | 50 ± 2 | 73 ± 2 | 71 ± 1 |
